Source: patent US20200231684A1 (published 2020)

B1: antibody 67E7 (antibody, V domains shown)
VH: EVQLQQSGAEFVRPGASVKFSCTASGFNIKDDYIHWVRQRPEQGLEWVGRIDPANGNTKYAPKFQDKATITADTSSNTAYLQLSSLTSEDTAVYYCAKSFPNNYYSYDDAFAYWGQGTLVTVSA
VL: DIQMTQSPASQSASLGESVTFTCLASQTIGTWLGWYQQKPGKSPQLLIYRSTTLADGVPSRFSGSGSGTKFSFKISSLQAADFASYYCQQLYSAPYTFGGGTKLEIR
notes: Mouse monoclonal from hybridoma; also called 67E7E8
B2: antibody 81A1 (antibody, V domains shown)
VH: QVQLKESGPGLVAPSQSLFITCTVSGFSLSSYEINWVRQVPGKGLEWLGVIWTGITTNYNSALISRLSISKDNSKSLVFLKMNSLQTDDTAIYYCARGTGTGFYYAMDYWGQGTSVTVSS
VL: DIQMTQTTSSLSASLGDRVTISCRASQDIYKYLNWYQQKPDGTLKLLIYYTSGLHSGVPSRFSGSGSGTDFSLTISNLEPEDIATYFCQQDSKFPWTFGGDTKLEIK
notes: Mouse monoclonal from hybridoma; also called 81A1D1; Mouse 81A1

Columns and labels:
[1] = molecular target: T1, recombinant human IL-36R (ECD) (human, UniProt Q9HB29 20-332); test: SPR (ProteOn), single IL-36R surface coat concentration
T1 construct: range 20-332; also called IL-1RL2; IL-1Rrp2
T1 sequence (looked up): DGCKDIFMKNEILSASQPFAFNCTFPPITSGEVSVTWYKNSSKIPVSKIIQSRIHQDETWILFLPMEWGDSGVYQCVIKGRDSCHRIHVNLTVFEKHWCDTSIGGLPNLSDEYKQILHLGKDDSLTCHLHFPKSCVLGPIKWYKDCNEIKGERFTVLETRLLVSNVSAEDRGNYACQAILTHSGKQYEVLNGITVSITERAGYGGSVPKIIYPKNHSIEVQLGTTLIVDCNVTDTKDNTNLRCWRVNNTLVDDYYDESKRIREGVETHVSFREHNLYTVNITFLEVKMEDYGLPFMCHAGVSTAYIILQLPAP
Protocol: A) Kinetics and binding affinities of anti-IL-36R antibodies binding to recombinant human IL-36R were measured using the Proteon (Bio-Rad, Hercules, Calif.) using material generated from hybridoma following single column purification. […] Binding of the chimeric anti-IL36R IgGs is equivalent to the respective mouse leads.

mouse IL-36R = molecular target: T2, mouse IL-36R (mouse, UniProt Q9ERS7 22-338); test: BLI (Fortebio Octet), antibody injected over antigen surface
T2 sequence (looked up): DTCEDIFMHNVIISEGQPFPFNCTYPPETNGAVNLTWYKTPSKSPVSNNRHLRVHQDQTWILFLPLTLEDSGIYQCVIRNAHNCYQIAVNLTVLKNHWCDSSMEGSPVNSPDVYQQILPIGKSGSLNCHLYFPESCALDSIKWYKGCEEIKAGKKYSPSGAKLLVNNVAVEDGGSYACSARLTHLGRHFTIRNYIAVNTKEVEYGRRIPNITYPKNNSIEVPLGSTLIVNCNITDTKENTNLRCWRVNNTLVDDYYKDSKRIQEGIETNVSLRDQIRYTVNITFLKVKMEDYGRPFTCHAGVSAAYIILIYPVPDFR
Protocol: (§1) B) Molecular selectivity over mouse IL-36R and human IL-1R1 The mouse and chimeric anti-IL-36R antibodies were also injected over either a mouse IL-36R or a human IL-1R1 surface at a concentration of 100 nM. The binding signal to mouse IL-36R and to human IL-1R1 for these antibodies measured using the Fortebio Octet (Fortebio, Menlo Park, Calif.) is zero, which indicates these antibodies selectively bind to human IL-36R.

human IL-1R1 = molecular target: T3, human IL-1R1 (human, UniProt P14778 18-336, limits assumed); test: as above
T3 construct: also called IL-1RI
T3 sequence (looked up): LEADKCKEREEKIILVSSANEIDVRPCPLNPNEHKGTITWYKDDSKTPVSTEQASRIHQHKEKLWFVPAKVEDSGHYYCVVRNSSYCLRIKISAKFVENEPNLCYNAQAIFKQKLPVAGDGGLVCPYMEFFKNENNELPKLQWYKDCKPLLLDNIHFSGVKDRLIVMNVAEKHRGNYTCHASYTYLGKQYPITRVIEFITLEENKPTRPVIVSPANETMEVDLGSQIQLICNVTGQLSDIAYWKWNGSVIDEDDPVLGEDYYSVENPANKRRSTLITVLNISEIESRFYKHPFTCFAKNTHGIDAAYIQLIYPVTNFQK
Protocol: as §1

human IL-36R on cells [2] = molecular target: T4, human IL-36R on cells (human, UniProt Q9HB29 20-575); test: flow cytometry, HEK293 cells transfected with full-length human IL-36R
T4 construct: whole, on cells; also called full-length human IL-36R on HEK293 transfectants; HEK-IL-36R cells
T4 sequence (looked up): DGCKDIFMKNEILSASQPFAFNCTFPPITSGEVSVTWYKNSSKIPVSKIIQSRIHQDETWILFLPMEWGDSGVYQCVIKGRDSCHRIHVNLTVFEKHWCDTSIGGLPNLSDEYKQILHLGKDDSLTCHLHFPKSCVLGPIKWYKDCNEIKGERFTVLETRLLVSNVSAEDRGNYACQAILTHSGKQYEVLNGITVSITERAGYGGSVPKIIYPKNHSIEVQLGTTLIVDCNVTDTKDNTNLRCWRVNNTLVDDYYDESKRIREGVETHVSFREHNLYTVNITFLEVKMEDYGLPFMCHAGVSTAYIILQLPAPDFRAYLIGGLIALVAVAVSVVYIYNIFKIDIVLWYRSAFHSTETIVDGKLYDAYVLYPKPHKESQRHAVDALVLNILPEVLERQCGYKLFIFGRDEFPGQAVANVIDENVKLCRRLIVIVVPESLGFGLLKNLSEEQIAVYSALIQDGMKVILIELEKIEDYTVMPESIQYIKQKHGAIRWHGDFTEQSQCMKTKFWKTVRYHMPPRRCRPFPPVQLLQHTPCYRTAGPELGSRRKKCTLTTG
Protocol: HEK293 cells transfected with full-length human IL-36R or NCI/ADR-RES cells were passaged for 24 hours prior to staining. Cells were removed from flasks by rinsing with 10 ml of 5 mM EDTA in PBS, and then incubated at 37° C. for 10 min with an additional 10 ml of 5 mM EDTA and 2.5 ml of Accumax to declump/disperse cells. Antibodies were then diluted to specified concentrations in PBS+2% BSA, and cells incubated for 20 min at room temperature. Excess antibody was then washed by adding 200 μl of PBS and then centrifuged. Secondary reagent was then added at 50 μl per well and cells are incubated for 15 min at room temperature and then washed as above. Cells were resuspended in 200 μl PBS and analyzed by flow cytometry.

[3] = molecular target: cynomolgus IL-36R on BaF/3 cells (cynomolgus, UniProt A0A2K5WSK9 20-558); test: cell-based or functional assay
cynomolgus IL-36R on BaF/3 cells, sequence (A0A2K5WSK9 entry or part of it): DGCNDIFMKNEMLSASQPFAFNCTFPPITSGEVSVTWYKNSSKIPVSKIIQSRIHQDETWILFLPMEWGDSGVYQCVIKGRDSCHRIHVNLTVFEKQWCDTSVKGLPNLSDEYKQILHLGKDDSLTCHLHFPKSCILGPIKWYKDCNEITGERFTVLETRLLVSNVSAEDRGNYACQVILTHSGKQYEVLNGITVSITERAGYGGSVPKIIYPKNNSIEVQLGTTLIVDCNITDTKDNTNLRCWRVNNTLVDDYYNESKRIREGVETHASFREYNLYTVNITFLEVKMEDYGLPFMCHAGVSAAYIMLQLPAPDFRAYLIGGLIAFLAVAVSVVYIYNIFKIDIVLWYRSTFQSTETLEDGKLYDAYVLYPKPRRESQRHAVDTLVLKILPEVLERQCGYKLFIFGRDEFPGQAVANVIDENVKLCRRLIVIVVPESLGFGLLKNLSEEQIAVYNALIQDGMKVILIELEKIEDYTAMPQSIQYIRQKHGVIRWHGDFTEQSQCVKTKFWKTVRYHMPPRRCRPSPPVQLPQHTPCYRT

human IL-36R on cells [4] = molecular target: T4, human IL-36R on cells; test: cell-based or functional assay
[5] = molecular target: T1, recombinant human IL-36R (ECD); test: SPR (ProteOn), recombinant human IL-36R at 7 surface densities, global fit
Protocol: A) Kinetics and binding affinities of anti-IL-36R antibodies binding to recombinant human IL-36R were measured using the Proteon (Bio-Rad, Hercules, Calif.) using material generated from hybridoma following single column purification. […] The binding affinities of the mouse antibodies to human IL-36R run at 7 different surface densities (globally fit) is shown in Table 1. Binding of the chimeric anti-IL36R IgGs is equivalent to the respective mouse leads.

Binder	Kd [1] [nM]	binding result (mouse IL-36R)	binding result (human IL-1R1)	EC50 (human IL-36R on cells [2]) [nM]	IC90, pNFκB, BaF/3 cynomolgus IL-36R cells, trun-IL-36a [3]	IC90, pNFκB, BaF/3 cynomolgus IL-36R cells, trun-IL-36b [3] [nM]	IC90, pNFκB, BaF/3 cynomolgus IL-36R cells, trun-IL-36g [3] [nM]	IC90, pNFκB, NCI/ADR-RES cells, trun-IL-36g (human IL-36R on cells [4]) [nM]	Kd [5] [nM]	IC90, GM-CSF release, NCI/ADR-RES cells, trun-IL-36a (human IL-36R on cells [4]) [nM]	IC90, GM-CSF release, NCI/ADR-RES cells, trun-IL-36b (human IL-36R on cells [4]) [nM]	IC90, GM-CSF release, NCI/ADR-RES cells, trun-IL-36g (human IL-36R on cells [4]) [nM]	IC90, IL-6 release, NCI/ADR-RES cells, trun-IL-36a (human IL-36R on cells [4]) [nM]	IC90, IL-6 release, NCI/ADR-RES cells, trun-IL-36b (human IL-36R on cells [4]) [nM]	IC90, IL-6 release, NCI/ADR-RES cells, trun-IL-36g (human IL-36R on cells [4]) [nM]	IC90, IL-8 release, NCI/ADR-RES cells, trun-IL-36a (human IL-36R on cells [4]) [nM]	IC90, IL-8 release, NCI/ADR-RES cells, trun-IL-36b (human IL-36R on cells [4]) [nM]	IC90, IL-8 release, NCI/ADR-RES cells, trun-IL-36g (human IL-36R on cells [4]) [nM]	IC90, pNFκB, NCI/ADR-RES cells, trun-IL-36a (human IL-36R on cells [4]) [nM]	IC90, pNFκB, NCI/ADR-RES cells, trun-IL-36b (human IL-36R on cells [4]) [nM]
B1	< 0.1	no binding (tested: 100 nM)	no binding (tested: 100 nM)	0.532	> 4 µM	> 333	> 333	> 67												
B2	< 0.1	no binding (tested: 100 nM)	no binding (tested: 100 nM)	0.28	0.6 nM	0.9	1	2.2	0.016	1.2	1.2	0.7	17	5.3	0.8	1.9	0.5	0.5	2.7	4.2
